Source: the supplement of paper PMC10201428
± gives the standard deviation of the averaged measurements.

B1: library; a variant is named by its letters at N, in order (parent)
chain: ACATTTGTTGATACAACCATAAAATGATAATTACACCCATAAATTGATAATTATCACACCCANNNNNNNNNNNNNNCTCTGATCATAGTCAGACCAACATTGCTACGACCCGTATTCGCACCGACAC

What was measured:
[1] = variants of: B1; assay: relative integration efficiency (T-RL orientation) vs wild-type transposon end (log2 (normalized fold change)); transposon end mutated: right end (5 bp flank + 75 bp right end); higher = more efficient transposition; details: with VchCAST RNA-guided transposition machinery (E. coli BL21(DE3) host, lacZ target)
Protocol: (§1)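 Pooled, barcoded VchCAST (Tn6677) mini-transposon donor libraries; each variable transposon-end sequence sits in a fixed pDonor mini-transposon context (10-bp barcode and cargo not included). Left- or right-end libraries were co-transformed with pEffector (TniQ-Cascade, TnsABC, lacZ crRNA, T7, 0.1 mM IPTG) into E. coli BL21(DE3) and grown 18 h at 37 C. T-LR and T-RL junction amplicons were sequenced; output/input barcode fold change was normalised to the mean of four wild-type barcodes and log2-transformed. Two biological replicates; zero-count/undetected variants carry floor values (-10 / -15), censored here. Barcode uncoupling by PCR recombination adds noise.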

[2] = variants of: B1; assay: relative integration efficiency (T-LR orientation) vs wild-type transposon end (log2 (normalized fold change)); transposon end mutated: right end (5 bp flank + 75 bp right end); higher = more efficient transposition; details: with VchCAST RNA-guided transposition machinery (E. coli BL21(DE3) host, lacZ target)
Protocol: as §1

Variant	relative integration efficiency (log2) [1]	relative integration efficiency (log2) [2]
TAAATTGATATTGC C59G	-0.141 ± 0.043	0.747 ± 0.024
TAAATTGATATTGC C59T	-0.0651 ± 0.0017	0.538 ± 0.076
TAAATTGATATTGC C59A	0.048 ± 0.078	-0.0286 ± 0.31
TAAATTGATATTGC C17A	-0.124 ± 0.042	-0.331 ± 0.098
TAAATTGATATTGC C17T	7.24e-05 ± 0.068	-0.744 ± 0.39
TAAATTGATATTGC C17G	-0.0518 ± 0.013	-0.402 ± 0.0041
TAAAGGGATATTGC	-0.254 ± 0.0064	1.63 ± 0.069
TAAAATGATATTGC	0.0615 ± 0.025	0.274 ± 0.058
TAAAAACTTATTGC	-0.368 ± 0.07	2.34 ± 0.09
TAAATTGATATACG C77G	0.221 ± 0.0027	0.3 ± 0.0057
TAAATTGATAAAGC	-0.251 ± 0.025	0.6224 ± 0.0024
GAAATTGATATTGC A62C	-0.604 ± 0.16	2.52 ± 0.065
TAAATTGAATAAGC	-0.554 ± 0.076	1.55 ± 0.079
TAAATTGATATTGC A21T	0.0476 ± 0.12	-0.217 ± 0.052
TAAATTGATATTGC A21G	-0.564 ± 0.14	-1.31 ± 0.14
TAAATTGATATTGC A21C	-0.283 ± 0.04	-0.846 ± 0.23
TAAATTGATATTGC A19T	-0.574 ± 0.03	-0.267 ± 0.084
TAAATTGATATTGC A19C	-1.18 ± 0.12	-1.16 ± 0.11
TAAATTGATATTGC A19G	-0.155 ± 0.081	-0.378 ± 0.051

Variant	relative integration efficiency (log2) [1]	relative integration efficiency (log2) [2]
TAAATTGATATTGC A43G	-0.0412 ± 0.15	-0.246 ± 0.17
TAAATTGATATTGC A43C	-0.127 ± 0.027	-0.0895 ± 0.24
TAAATTGATATTGC A43T	-0.127 ± 0.0053	-0.303 ± 0.3
TAAATGTCGATTGC	-0.671 ± 0.07	2.165 ± 0.0045
TAAATTGACATTGC	-0.167 ± 0.015	0.353 ± 0.12
TAAACTGATATTGC	-0.0927 ± 0.037	0.318 ± 0.14
TAAATTGATATTGC A23T	1.42 ± 0.079	1.34 ± 0.053
TAAATTGATATTGC A23C	0.346 ± 0.047	0.198 ± 0.087
TAAATTGATATTGC A23G	-0.0394 ± 0.13	-0.227 ± 0.71
TAAATGGATATTGC	-0.161 ± 0.039	1.54 ± 0.17
TAAATTGATATTGC A24C	0.238 ± 0.12	0.1 ± 0.21
TAAATTGATATTGC A24T	-0.125 ± 0.1	-0.0829 ± 0.28
TAAATTGATATTGC A24G	0.266 ± 0.047	0.156 ± 0.052
TAAATCGATATTGC	-0.159 ± 0.022	0.237 ± 0.063
TAAATAGATATTGC	-0.222 ± 0.0045	1.53 ± 0.13
TAAATTGATATTGC A42G	-0.807 ± 0.11	-1.01 ± 0.016
TAAATTGATATTGC A42T	0.0512 ± 0.029	-0.0993 ± 0.22
TAAATTGATATTGC A42C	-0.945 ± 0.052	-0.708 ± 0.35
TAAATTGATATTGC C61G	0.142 ± 0.018	0.81 ± 0.3

Variant	relative integration efficiency (log2) [1]	relative integration efficiency (log2) [2]
TAAATTGATATTGC C61T	-0.0918 ± 0.017	0.755 ± 0.17
TAAATTGATATTGC C61A	-0.241 ± 0.071	1.04 ± 0.15
TAAATTGATATTGC A58C	-0.461 ± 0.11	1.05 ± 0.17
TAAATTGATATTGC A58G	-0.236 ± 0.0068	1.32 ± 0.19
TAAATTGATATTGC A58T	-0.281 ± 0.054	1.17 ± 0.41
TAAATTGATATTGC A47C	-0.409 ± 0.05	-0.216 ± 0.54
TAAATTGATATTGC A47T	-0.574 ± 0.2	-0.552 ± 0.16
TAAATTGATATTGC A47G	-0.0921 ± 0.17	-0.453 ± 0.42
TAAATTGATATTGC A49C	-0.518 ± 0.15	-0.614 ± 0.38
TAAATTGATATTGC A49T	-0.47 ± 0.16	0.117 ± 0.012
TAAATTGATATTGC A49G	-0.49 ± 0.084	-0.155 ± 0.12
TAAATTGATATTGC A53G	-0.385 ± 0.25	-0.269 ± 0.048
TAAATTGATATTGC A53T	-0.33 ± 0.038	-0.318 ± 0.48
TAAATTGATATTGC A53C	-0.408 ± 0.19	0.07 ± 0.052
TAAATTGATACTGC	-0.0852 ± 0.044	0.177 ± 0.018
TAAATTGATATTGC A50G	-0.0471 ± 0.15	0.0313 ± 0.15
TAAATTGATATTGC A50C	-0.321 ± 0.012	-0.213 ± 0.17
TAAATTGATATTGC A50T	-0.455 ± 0.22	-0.0702 ± 0.025
